Source: patent US20110256127A1 (Genentech, published 2011)
Changes are numbered by the printed parent chain. Where “and” joins values, the source holds several entries; their conditions need not be identical. Identical values can stand only once.

T1: LRP6.E1-E2 fragment (biotinylated, His-tagged) (Homo sapiens (Human), UniProt O75581 19-644, biotinylated (AviTag system))
T1 construct: BLI antigen from baculovirus-infected insect cells; also called LRP6 E1-E2 protein fragment; not shown: His tag and AviTag
T1 sequence: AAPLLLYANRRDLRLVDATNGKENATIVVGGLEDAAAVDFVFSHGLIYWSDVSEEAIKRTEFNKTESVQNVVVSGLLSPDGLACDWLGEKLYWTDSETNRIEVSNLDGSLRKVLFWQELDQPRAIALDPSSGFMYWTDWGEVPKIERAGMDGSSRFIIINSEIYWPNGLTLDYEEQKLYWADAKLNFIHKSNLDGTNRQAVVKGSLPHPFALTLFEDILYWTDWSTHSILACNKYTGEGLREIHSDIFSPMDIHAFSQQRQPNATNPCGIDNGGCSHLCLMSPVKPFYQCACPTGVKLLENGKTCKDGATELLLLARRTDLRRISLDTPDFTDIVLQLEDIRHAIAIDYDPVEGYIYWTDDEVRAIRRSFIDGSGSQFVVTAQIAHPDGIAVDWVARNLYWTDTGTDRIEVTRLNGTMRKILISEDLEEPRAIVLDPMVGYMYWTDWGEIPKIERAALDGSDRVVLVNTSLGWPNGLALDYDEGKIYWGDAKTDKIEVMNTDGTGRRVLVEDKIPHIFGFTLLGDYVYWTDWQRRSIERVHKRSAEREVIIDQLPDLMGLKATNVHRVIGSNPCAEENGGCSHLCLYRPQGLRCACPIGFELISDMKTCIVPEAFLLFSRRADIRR

T2: LRP6.E3-E4 fragment (biotinylated, His-tagged) (Homo sapiens (Human), UniProt O75581 629-1244, biotinylated (AviTag system))
T2 construct: BLI antigen from baculovirus-infected insect cells; also called LRP6.E3-E4 protein; not shown: His tag and AviTag
T2 sequence: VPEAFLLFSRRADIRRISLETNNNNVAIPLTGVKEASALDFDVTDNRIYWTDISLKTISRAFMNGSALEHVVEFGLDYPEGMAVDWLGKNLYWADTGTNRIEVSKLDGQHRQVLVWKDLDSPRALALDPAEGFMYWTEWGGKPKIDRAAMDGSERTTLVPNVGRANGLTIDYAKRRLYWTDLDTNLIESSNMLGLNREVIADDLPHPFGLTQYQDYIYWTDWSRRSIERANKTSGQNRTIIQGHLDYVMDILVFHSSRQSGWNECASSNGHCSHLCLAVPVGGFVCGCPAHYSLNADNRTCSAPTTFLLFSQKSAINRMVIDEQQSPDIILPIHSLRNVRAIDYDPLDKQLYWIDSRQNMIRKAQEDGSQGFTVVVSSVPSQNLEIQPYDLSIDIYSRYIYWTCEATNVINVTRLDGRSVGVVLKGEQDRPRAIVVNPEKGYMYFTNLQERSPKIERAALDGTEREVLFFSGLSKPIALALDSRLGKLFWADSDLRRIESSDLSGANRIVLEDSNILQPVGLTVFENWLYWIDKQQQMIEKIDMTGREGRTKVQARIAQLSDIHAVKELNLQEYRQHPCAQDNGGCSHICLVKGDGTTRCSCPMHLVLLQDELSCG

T3: LRP6 (human; form used in the assay not stated) (human, UniProt O75581 20-1253, limits assumed)
T3 construct: probably an E3-E4 fragment for SPR
T3 sequence: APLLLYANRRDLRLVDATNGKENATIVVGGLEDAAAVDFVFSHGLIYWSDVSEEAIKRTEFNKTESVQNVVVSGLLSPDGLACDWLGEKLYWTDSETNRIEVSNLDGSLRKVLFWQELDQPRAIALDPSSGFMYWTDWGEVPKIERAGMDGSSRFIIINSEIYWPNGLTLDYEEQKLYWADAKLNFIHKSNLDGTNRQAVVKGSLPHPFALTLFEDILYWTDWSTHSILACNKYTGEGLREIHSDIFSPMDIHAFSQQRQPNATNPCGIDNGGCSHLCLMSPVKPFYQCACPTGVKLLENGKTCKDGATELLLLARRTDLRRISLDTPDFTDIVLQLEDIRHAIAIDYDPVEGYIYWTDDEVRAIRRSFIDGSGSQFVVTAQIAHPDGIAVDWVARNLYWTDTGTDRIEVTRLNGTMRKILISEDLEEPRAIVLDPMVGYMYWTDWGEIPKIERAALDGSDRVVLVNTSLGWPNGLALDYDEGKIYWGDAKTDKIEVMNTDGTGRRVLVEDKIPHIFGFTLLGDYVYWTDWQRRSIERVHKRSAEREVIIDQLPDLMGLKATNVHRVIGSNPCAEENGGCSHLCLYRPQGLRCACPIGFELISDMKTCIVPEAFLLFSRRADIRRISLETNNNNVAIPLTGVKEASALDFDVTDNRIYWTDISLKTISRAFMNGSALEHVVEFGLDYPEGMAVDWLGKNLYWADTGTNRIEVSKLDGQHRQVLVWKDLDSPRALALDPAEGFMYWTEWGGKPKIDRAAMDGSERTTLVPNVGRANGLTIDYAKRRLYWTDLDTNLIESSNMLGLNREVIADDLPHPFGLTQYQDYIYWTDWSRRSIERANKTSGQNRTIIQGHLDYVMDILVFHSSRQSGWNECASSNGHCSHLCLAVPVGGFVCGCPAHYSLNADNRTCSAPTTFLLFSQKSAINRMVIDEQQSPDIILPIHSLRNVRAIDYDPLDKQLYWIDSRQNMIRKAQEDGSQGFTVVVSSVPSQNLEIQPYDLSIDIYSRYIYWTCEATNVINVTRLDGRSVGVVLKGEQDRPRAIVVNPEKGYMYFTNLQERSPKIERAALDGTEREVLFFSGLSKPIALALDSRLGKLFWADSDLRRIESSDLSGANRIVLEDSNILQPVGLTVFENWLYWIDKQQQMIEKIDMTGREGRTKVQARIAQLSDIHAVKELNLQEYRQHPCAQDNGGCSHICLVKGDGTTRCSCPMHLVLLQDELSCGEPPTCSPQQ

T4: His-tagged LRP6.E3-E4 protein (human, UniProt O75581 629-1244)
T4 construct: also called LRP6.E3-4-His; printed once as LRP3.E3-E4; not shown: His tag
T4 sequence: T2 sequence

B1: Wnt9b (ligand, mouse, UniProt O35468 24-359, looked up)
chain: AAYFGLTGREVLTPFPGLGTAAAPAQAGAHLKQCDLLKLSRRQKQLCRREPGLAETLRDAAHLGLLECQFQFRQERWNCSLEGRTGLLQRGFKETAFLYAVSAAALTHALARACSAGRMERCTCDDSPGLESRQAWQWGVCGDNLKYSTKFLSNFLGPKRGSKDLRARADAHNTHVGIKAVKSGLRTTCKCHGVSGSCAVRTCWKQLSPFRETGQVLKLRYDTAVKVSSATNEALGRLELWAPAKPGGPAKGLAPRPGDLVYMEDSPSFCRPSKYSPGTAGRVCSRDSSCSSLCCGRGYDTQSRMVVFSCHCQVQWCCYVECQQCAQQELVYTCKR
notes: also called purified mouse Wnt9b
B2: Wnt3a (ligand, human, UniProt P56704 19-352, looked up)
chain: SYPIWWSLAVGPQYSSLGSQPILCASIPGLVPKQLRFCRNYVEIMPSVAEGIKIGIQECQHQFRGRRWNCTTVHDSLAIFGPVLDKATRESAFVHAIASAGVAFAVTRSCAEGTAAICGCSSRHQGSPGKGWKWGGCSEDIEFGGMVSREFADARENRPDARSAMNRHNNEAGRQAIASHMHLKCKCHGLSGSCEVKTCWWSQPDFRAIGDFLKDKYDSASEMVVEKHRESRGWVETLRPRYTYFKVPTERDLVYYEASPNFCEPNPETGSFGTRDRTCNVSSHGIDGCDLLCCGRGHNARAERRREKCRCVFHWCCYVSCQECTRVYDVHTCK
notes: also called purified human Wnt3a
B3: YW211.31.57 antibody (antibody, human IgG1, kappa, V domains shown)
VH: EVQLVESGGGLVQPGGSLRLSCAASGFTFTSYYISWVRQAPGKGLEWVAEISPYSGSTYYADSVKGRFTISADTSKNTAYLQMNSLRAEDTAVYYCALRARPPIRLYPRGSVMDYWGQGTLVTVSS
VL: DIQMTQSPSSLSASVGDRVTITCRASQDVSTAVAWYQQKPGKAPKLLIYSASFLYSGVPSRFSGSGSGTDFTLTISSLQPEDFATYYCQQSYTLPTTFGQGTKVEIKR
B4: YW211.03 antibody (antibody, V domains shown)
VH: EVQLVESGGGLVQPGGSLRLSCAASGFTFTGYWIHWVRQAPGKGLEWVGTISPAGGSTDYADSVKGRFTISADTSKNTAYLQMNSLRAEDTAVYYCARTDWRFHHAGEYAMDYWGQGTLVTVSS
VL: B3 VL with L94T, T96P
B5: YW211.11 antibody (antibody, V domains shown)
VH: EVQLVESGGGLVQPGGSLRLSCAASGFTFTNYDIHWVRQAPGKGLEWVASIYPAGGDTDYADSVKGRFTISADTSKNTAYLQMNSLRAEDTAVYYCARSPGWALRGAMDYWGQGTLVTVSS
VL: B3 VL with L94T, T96P
B6: YW211.31.11 antibody (antibody, V domains shown)
VH: B3 VH with T30G, S31F, I34L, Y107H
VL: B3 VL with T93A, L94I
B7: YW211.12 antibody (antibody, V domains shown)
VH: EVQLVESGGGLVQPGGSLRLSCAASGFTFTGNDIHWVRQAPGKGLEWVGRIYPYGGYTDYADSVKGRFTISADTSKNTAYLQMNSLRAEDTAVYYCAKEVTYHLFDYWGQGTLVTVSS
VL: B3 VL with L94T, T96P
B8: YW211.08 antibody (antibody, V domains shown)
VH: EVQLVESGGGLVQPGGSLRLSCAASGFTFTDYWIHWVRQAPGKGLEWVAGISPDGGSTYYADSVKGRFTISADTSKNTAYLQMNSLRAEDTAVYYCARWSYISRYFSSVMDYWGQGTLVTVSS
VL: B3 VL with L94T, T96P
B9: YW211.33 antibody (antibody, V domains shown)
VH: EVQLVESGGGLVQPGGSLRLSCAASGFTFSGSSISWVRQAPGKGLEWVGVISPSSGATYYADSVKGRFTISADTSKNTAYLQMNSLRAEDTAVYYCARWPAGAFLGYYGMDYWGQGTLVTVSS
VL: B3 VL with L94T, T96P
B10: YW211.31.35 antibody (antibody, V domains shown)
VH: B3 VH with T30G, S31F, Y107H
VL: B3 VL with L94T, T96P
B11: YW211.31.62 antibody (antibody, human IgG1, kappa, V domains shown)
VH: B3 VH with T30G, S31Y, Y107H
VL: B3 VL with L94T, T96P

How the values were obtained:
[1] = biological target: T1, LRP6.E1-E2 fragment (biotinylated, …); test: biolayer interferometry, immobilized LRP6 E1-E2 fragment; Wnt9b at 200 nM; association then dissociation phase
Description: (§1) Biolayer interferometry was performed as previously described (Bourhis et al., 2010). Briefly, biotinylated, His-tagged LRP6 proteins were purified from baculovirus-infected insect cells using the AviTag system (GeneCopoeia). Binding kinetics were measured on the Octet RED System (ForteBio) using Streptavidin High Binding FA Biosensors loaded with 20 μg/ml LRP6 protein.
(§2) In these assays, antibody binding to LRP6 protein was allowed to reach equilibrium, and the subsequent wavelength shift in the interference pattern is shown for association and dissociation phases of Wnt protein binding.

[2] = biological target: T2, LRP6.E3-E4 fragment (biotinylated, …); test: biolayer interferometry, immobilized LRP6 E3-E4 fragment; Wnt3a at 200 nM; association then dissociation phase
Description: as §1, §2

LRP6 on HEK293 cells = LRP6 on HEK293 cells (human, UniProt O75581 20-1613); test: cell-based or functional assay
[3] = biological target: T3, LRP6 (human; form used in the assay not …); test: SPR (BIAcore), full length IgG; LRP6 construct not stated; affinity-matured clone, full length human IgG
LRP6.E1-E2-Fc = LRP6.E1-E2-Fc (human); test: ELISA
Sequence of LRP6.E1-E2-Fc (human) (chain, as listed by the source limits assumed): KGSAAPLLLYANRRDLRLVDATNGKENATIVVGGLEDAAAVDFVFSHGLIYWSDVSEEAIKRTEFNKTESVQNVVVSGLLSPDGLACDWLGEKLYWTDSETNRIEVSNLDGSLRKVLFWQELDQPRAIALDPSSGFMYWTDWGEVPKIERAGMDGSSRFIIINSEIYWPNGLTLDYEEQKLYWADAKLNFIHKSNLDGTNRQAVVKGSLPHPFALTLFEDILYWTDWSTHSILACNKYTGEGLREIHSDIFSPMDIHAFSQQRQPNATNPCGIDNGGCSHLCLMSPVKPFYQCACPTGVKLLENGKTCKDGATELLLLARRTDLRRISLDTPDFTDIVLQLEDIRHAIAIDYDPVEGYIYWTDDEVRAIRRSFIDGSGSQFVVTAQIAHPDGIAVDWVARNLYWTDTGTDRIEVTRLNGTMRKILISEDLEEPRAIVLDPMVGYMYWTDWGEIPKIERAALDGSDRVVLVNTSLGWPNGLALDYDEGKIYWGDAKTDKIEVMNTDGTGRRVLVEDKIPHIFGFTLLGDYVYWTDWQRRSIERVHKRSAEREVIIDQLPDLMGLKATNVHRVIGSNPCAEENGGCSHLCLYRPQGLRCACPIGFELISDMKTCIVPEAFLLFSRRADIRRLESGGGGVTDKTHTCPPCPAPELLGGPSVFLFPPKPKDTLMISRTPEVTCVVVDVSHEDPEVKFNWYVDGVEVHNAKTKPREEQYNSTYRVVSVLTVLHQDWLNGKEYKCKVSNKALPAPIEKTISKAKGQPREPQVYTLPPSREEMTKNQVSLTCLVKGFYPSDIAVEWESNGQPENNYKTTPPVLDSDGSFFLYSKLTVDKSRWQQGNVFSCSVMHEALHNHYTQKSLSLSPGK

LRP6.E3-E4-Fc = biological target: T5, LRP6.E3-E4-Fc (human); test: ELISA
T5 construct: also called LRP6.E3-4-Fc
T5 sequence (chain, as listed by the source limits assumed): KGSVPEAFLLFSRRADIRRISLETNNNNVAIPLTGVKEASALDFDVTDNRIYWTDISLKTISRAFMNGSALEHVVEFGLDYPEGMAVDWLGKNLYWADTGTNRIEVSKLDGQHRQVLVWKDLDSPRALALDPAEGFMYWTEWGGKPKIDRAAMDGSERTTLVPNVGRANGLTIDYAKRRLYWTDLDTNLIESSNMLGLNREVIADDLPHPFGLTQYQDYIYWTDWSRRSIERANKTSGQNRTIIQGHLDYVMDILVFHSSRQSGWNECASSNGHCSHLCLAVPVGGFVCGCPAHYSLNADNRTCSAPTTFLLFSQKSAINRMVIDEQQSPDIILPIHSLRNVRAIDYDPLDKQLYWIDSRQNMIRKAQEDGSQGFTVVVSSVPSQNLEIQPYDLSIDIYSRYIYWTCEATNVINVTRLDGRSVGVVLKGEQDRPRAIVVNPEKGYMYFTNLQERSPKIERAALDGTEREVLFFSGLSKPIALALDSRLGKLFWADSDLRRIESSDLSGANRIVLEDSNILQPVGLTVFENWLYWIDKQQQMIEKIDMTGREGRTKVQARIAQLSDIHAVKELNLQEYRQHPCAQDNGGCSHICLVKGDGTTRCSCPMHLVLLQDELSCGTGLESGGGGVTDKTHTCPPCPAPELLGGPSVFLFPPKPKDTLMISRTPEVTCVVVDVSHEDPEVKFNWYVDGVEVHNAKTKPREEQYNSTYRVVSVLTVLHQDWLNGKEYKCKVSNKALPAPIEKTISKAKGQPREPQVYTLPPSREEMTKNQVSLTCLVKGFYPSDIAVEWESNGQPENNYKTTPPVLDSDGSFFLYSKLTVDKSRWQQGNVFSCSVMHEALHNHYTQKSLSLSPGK

[4] = biological target: T4, His-tagged LRP6.E3-E4 protein; test: phage competition ELISA, phage-displayed clone

| Binder | binding result (LRP6.E1-E2-Fc) | binding result (LRP6.E3-E4-Fc) | also measured |
| --- | --- | --- | --- |
| B1 | – | – | binding result [1]: binds |
| B2 | – | – | binding result [2]: binds |
| B3 | – | – | IC50, inhibition of signaling in Wnt3a-stimulated HEK293 cells (LRP6 on HEK293 cells): ~0.1 µg/ml and ~0.6 nM; Kd [3]: 0.27 nM |
| B4 | no binding | binds | – |
| B5 | no binding | binds | – |
| B6 | – | – | binding result [4]: binds |
| B7 | no binding | binds | – |
| B8 | no binding | binds | – |
| B9 | no binding | binds | – |
| B10 | – | – | binding result [4]: binds |
| B11 | – | – | IC50, inhibition of signaling in Wnt3a-stimulated HEK293 cells (LRP6 on HEK293 cells): ~0.1 µg/ml and ~0.6 nM; Kd [3]: 0.17 nM |
